Data as given in article PMC8531446, “Light-triggered and phosphorylation-dependent 14-3-3 association with NON-PHOTOTROPIC HYPOCOTYL 3 is required for hypocotyl phototropism” (Nature Communications, 2021).

What was measured:
[1] = target: T1, GFP:NPH3 from transgenic Arabidopsis nph3-7 (Arabidopsis thaliana, UniProt Q9FMF5 1-746, phosphoserine at 744 upon blue light irradiation (α-pS744 antibody); dephosphorylated on prolonged irradiation or re-transfer to darkness); assay: far-Western, overlay or dot blot; anti-GFP immunoprecipitates from blue-light-treated N. benthamiana leaves (10 μmol m^-2 s^-1, 40 min) or Arabidopsis nph3-7 seedlings (1 μmol m^-2 s^-1) separated by SDS-PAGE, on nitrocellulose; overlaid with RGS(His)6-14-3-3 omega at 20 μg ml^-1 in 50 mM MOPS pH 6.5, 20% glycerol, 5 mM MgCl2, 2 mM DTT, overnight at 4 °C; anti-RGS(His)6 detection; details: both partners purified
T1 construct: NPH3, Arabidopsis thaliana; cloned into pH7WGF2; S746 is the last residue; source: Arabidopsis nph3-7 seedlings, stably expressed (35S promoter), anti-GFP immunoprecipitate (GFP-Trap beads); not shown: GFP, N-terminal, kept
T1 sequence (looked up): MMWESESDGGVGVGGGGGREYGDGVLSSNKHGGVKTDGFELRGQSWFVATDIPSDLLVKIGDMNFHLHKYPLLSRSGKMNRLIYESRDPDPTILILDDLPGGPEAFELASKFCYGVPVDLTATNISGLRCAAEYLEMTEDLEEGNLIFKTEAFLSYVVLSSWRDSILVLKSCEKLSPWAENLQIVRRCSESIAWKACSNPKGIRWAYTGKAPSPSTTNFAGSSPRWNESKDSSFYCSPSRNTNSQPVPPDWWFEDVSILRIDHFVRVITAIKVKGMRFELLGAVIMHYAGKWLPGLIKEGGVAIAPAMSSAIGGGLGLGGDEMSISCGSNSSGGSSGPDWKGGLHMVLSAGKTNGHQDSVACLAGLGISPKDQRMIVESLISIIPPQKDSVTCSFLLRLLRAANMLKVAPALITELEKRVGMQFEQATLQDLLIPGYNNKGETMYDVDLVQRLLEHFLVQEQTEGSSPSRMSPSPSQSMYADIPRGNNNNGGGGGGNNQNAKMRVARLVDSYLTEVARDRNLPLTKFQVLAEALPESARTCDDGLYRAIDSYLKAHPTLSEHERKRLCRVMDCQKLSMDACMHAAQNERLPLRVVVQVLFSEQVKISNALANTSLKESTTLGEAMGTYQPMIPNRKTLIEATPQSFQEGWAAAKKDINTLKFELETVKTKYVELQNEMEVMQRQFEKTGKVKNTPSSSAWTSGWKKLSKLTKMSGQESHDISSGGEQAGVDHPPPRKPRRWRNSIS

[2] = target: T2, GFP:NPH3 from N. benthamiana (Arabidopsis thaliana, UniProt Q9FMF5 1-746, phosphoserine at 744 upon blue light irradiation only (α-pS744 antibody)); assay: as above; details: both partners purified
T2 construct: NPH3, Arabidopsis thaliana; cloned into pH7WGF2; S746 is the last residue; source: N. benthamiana leaves, transiently transformed (35S promoter), anti-GFP immunoprecipitate (GFP-Trap beads); not shown: GFP, N-terminal, kept
T2 sequence (looked up): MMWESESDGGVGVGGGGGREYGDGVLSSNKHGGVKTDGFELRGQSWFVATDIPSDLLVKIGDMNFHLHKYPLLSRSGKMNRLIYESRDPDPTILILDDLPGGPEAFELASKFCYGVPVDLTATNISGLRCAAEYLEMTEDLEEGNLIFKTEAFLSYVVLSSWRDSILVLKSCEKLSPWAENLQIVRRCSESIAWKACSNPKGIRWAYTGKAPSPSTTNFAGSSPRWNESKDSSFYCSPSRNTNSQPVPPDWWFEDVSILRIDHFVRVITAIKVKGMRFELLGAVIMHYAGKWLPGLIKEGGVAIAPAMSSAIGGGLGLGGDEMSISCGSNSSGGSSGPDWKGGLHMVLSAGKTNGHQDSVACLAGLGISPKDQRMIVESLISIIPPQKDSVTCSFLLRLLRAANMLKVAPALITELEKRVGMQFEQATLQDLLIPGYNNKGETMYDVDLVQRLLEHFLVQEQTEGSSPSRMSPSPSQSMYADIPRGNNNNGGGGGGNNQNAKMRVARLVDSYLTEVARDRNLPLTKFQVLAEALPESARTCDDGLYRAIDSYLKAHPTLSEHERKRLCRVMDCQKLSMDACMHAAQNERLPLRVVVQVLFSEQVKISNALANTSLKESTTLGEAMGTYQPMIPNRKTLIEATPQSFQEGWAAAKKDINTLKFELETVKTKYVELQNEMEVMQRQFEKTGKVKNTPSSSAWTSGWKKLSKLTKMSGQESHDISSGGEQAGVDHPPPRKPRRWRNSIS

binding result [1]: binds
binding result [2]: binds
B1: RGS(His)6-tagged Arabidopsis 14-3-3 isoform omega (natural protein, UniProt Q01525 1-259, looked up)
chain: MASGREEFVYMAKLAEQAERYEEMVEFMEKVSAAVDGDELTVEERNLLSVAYKNVIGARRASWRIISSIEQKEESRGNDDHVTAIREYRSKIETELSGICDGILKLLDSRLIPAAASGDSKVFYLKMKGDYHRYLAEFKTGQERKDAAEHTLAAYKSAQDIANAELAPTHPIRLGLALNFSVFYYEILNSPDRACNLAKQAFDEAIAELDTLGEESYKDSTLIMQLLRDNLTLWTSDMQDDAADEIKEAAAPKPTEEQQ
notes: 14-3-3 isoform omega, Arabidopsis; cDNA in the expression vector pQE-30; also called purified recombinant 14-3-3 proteins; RGS(His)6-tagged 14-3-3; source: E. coli M15, purified (Ni2+-NTA agarose, native conditions)
